Assay results published in the DeepSol protein solubility set.

Test: soluble on expression in E. coli; label from the status in PepcDB or PDB records

Q: Which “soluble on expression in E. coli” value does the source give for “MSALQSLRPALRTAYGLAVRSDIDLPELEPLPGDGAADLTVRRGALPELPGEGGFRTRFAPERAELWWQTVGTFRVEPGLVTASPHAGVSEDLVAYPLLGSVLALALEQLGLFTIHASAVSVGGHGVVMMGDKGAGKSTTATAMIRAGHPLIADDIVAVDEGFRLRPGFPQVKLSPAAAAAFDAPDAVHRPTVPEVPEKCRVLLPERFARGATPLKRIYRLERAPAGTEPAVISVSPIEALPLALRFAYVTRFGAEALNGAAGARHLRQAAAIAASGVLHRVIVPHALDRLPEVVALIERDAGAAALEHHHHHH” here?
A: not soluble

Q: For “MAPRSYWKGYLKLSLVTCPVTLMPATSEAERVRFRTLNGRTGHPVVSRYLDAETGDVVDDDDQVKGYPRSETEHVILEEEELDAVALESARTIDIDCFVPSDEIAWIWYDRPHYLMPADPIGEEAFAVIREAMRATDRSGVARLVLGGRERAVLLMPRGEGIILWTLRYGDEVRPEEAYFGDLAAGKPDPKALTLVKRLIEERTRTWEPGMVEDPVQENLLELIRSKKPKKRSRKAGAKAPKGGDNVVSIMDALRKSIEGKG”, which “soluble on expression in E. coli” value is on record?
A: not soluble

Q: Which “soluble on expression in E. coli” value does the source give for “MGSDKIHHHHHHMSDIELLETLAGTDQPRVMATIIHVEGSSYRKEGAMMLFQEDGTQVGLLSGGCLETDLTIKAQKVWQEQLPRTVVYDLSSEDDLSWGQGSGCNGTISVLLEPVDLKLRQHLKRVYDYLCAGKSVFHVKKLSTSGAVLEYAFILDESVYFGEWHSGHPVEWIRKIDENEEPLMFTHIYSPKERLIIFGAGPDVPPLVTFASNVGFYTVVTDWRPNQCEKHFFPDADEIIVDFPADFLRKFLIRPDDFVLIMTHHFQKDQEILHFLLEKELRYIGILGSKERTRRLLQNRKPPDHLYSPVGLSIDAQGPEEIAISIVAQLIQLIRSRKQASSPFSYLFQPESCKH” here?
A: not soluble

Q: For “MKDCSNGCSAECTGEGGSKEVVGTFKAKDLIVTPATILKEKPDPNNLVFGTVFTDHMLTVEWSSEFGWEKPHIKPLQNLSLHPGSSALHYAVELFEGLKAFRGVDNKIRLFQPNLNMDRMYRSAVRATLPVFDKEELLECIQQLVKLDQEWVPYSTSASLYIRPTFIGTEPSLGVKKPTKALLFVLLSPVGPYFSSGTFNPVSLWANPKYVRAWKGGTGDCKMGGNYGSSLFAQCEAVDNGCQQVLWLYGEDHQITEVGTMNLFLYWINEDGEEELATPPLDGIILPGVTRRCILDLAHQWGEFKVSERYLTMDDLTTALEGNRVREMFGSGTACVVCPVSDILYKGETIHIPTMENGPKLASRILSKLTDIQYGREERDWTIVLS”, which “soluble on expression in E. coli” value is on record?
A: soluble

Q: With “MPRVNIGPDNNAQIEITTLQSQSKSRKLKKIKMASGSERVVVVGVDDSAHSYHALETALDLFFIPFKANPRFKLVVLHARPTATFFLGVAGPGTVDIIPMVEEDLNKTADLVKKKCAEVCSAKSVEISSLEVIEGDPRNIMLEAVERHHA” as the sequence, how does the “soluble on expression in E. coli” value read?
A: soluble

Q: For “MAHHHHHHMIFVERQTDTENAAYLLAKMLGIHIRNIGMIHGGMQQRQRDYIMNGFKHSQTRILVATDVASRGIDFPDVTCVVNFIAPKSIDRYCHRIGRTGRAGRTGDSFTFIGHSDGCLAKDLVGYLKKCGMEVPQKLLDIAGKYVQYEEQRHLRRSWSGRSGRGFKRQKQDSPAPYQSSSW”, which “soluble on expression in E. coli” value is on record?
A: not soluble

Q: Which “soluble on expression in E. coli” value does the source give for “MMSLVIAFISCSKSDEDKVIKEENPKITSDTFSAVIKDGFTGENGEDLILYKNLKNIVVGDYIPYDITIKDEDSANTKYILTPTRIGEKNHQYFQIDYDVYLDNDKGEKVRVNAITFDKIGKHRFYIKPLVPGTFKLSFVLQREQNGQKVQDIKFPTLNFNVVKITVYKTQIFIGLYEVRFYIEDGENETDIYLSPDPSVKQTFVSKYNDMTYTGDFNVKEFCKVGYYSSTIKTITSITIIQKREGEEEYRIEYYNIPIP” here?
A: not soluble

Q: With “MARHHHHHHMPEGKIIKALSGFYYVLDESEDSDKVIQCRGRGIFRKNKITPLVGDYVVYQAENDKEGYLMEIKERTNELIRPPICNVDQAVLVFSAVQPSFSTALLDRFLVLVEANDIQPIICITKMDLIEDQDTEDTIQAYAEDYRNIGYDVYLTSSKDQDSLADIIPHFQDKTTVFAGQSGVGKSSLLNAISPELGLRTNEISEHLGRGKHTTRHVELIHTSGGLVADTPGFSSLEFTDIEEEELGYTFPDIREKSSSCKFRGCLHLKEPKCAVKQAVEDGELKQYRYDHYVEFMTEIKDRKPRY” as the sequence, how does the “soluble on expression in E. coli” value read?
A: soluble

Q: For “MSEATTTLDGWYCLHDLRSIDWAAWKTLSSDERGQAVSEFLNVVEKWNEVATAKKGSHAMYTVVGQKADIMLMILRPTMEELNEIETELNKTTLAEYMVPAYSYVSVVELSNYLPADEDPYQNPQILARLYPELPKANHICFYPMDKRRQGDDNWYMLPMEERKKMMYSHSKIGRQYAGKVRQVISGSVGFDDFEWGVTLFADDVLQFKKLIYEMRFDEVSARYGEFGTFFVGNILPDEKVEKFLHI”, which “soluble on expression in E. coli” value is on record?
A: not soluble

Q: With “PKHGKRYRALLEKVDPNKIYTIDEAAHLVKELATAKFDETVEVHAKLGIDPRRSDQNVRGTVSLPHGLGKQVRVLAIAKGEKIKEAEEAGADYVGGEEIIQKILDGWMDFDAVVATPDVMGAVGSKLGRILGPRGLLPNPKAGTVGFNIGEIIREIKAGRIEFRNDKTGAIHAPVGKASFPPEKLADNIRAFIRALEAHKPEGAKGTFLRSVYVTTTMGPSVRINPHS” as the sequence, how does the “soluble on expression in E. coli” value read?
A: soluble

Q: Which “soluble on expression in E. coli” value does the source give for “MGSDKIHHHHHHMAHEAQKAIARNSLLIRSLPEQHVDALLSQAVWRSYDRGETLFLQEEKAQAIHVVIDGWVKLFRMTPTGSEAVVSVFTRGESFGEAVALRNTPYPVSAEAVTPCEVMHIPSPVFVSLMRRDPEICISILATTFGHLHSLVAQLEQLKAQTGAQRVAEFLLELCDCDTGACEVTLPYDKMLIAGRLGMKPESLSRAFSRLKAAGVTVKRNHAEIEDIALLRDYAESDPADSWSKS” here?
A: not soluble

Q: Which “soluble on expression in E. coli” value does the source give for “MGSDKIHHHHHHMKELKIIFIPGWGMEEGVWTLVLPYFKEYSVQCINWRNVKEQSEFAGRIIDVAKDENVILVGWSLGALAAVQAHKKIQTKGIVLIGGTPKFTNTSDYTSGWNALHVERLKKNVARKKEDTLKRFYENMFTKDELKENTSFEEIALNFKGDSIQSLQLGLDYLIETDMRNELIDVKVPLLLLHGEQDVICPLSAAHSMTENANAKLKVVSEAGHALCVTNFEYCANEIIQFVEGIRHDQQNVTTKTI” here?
A: not soluble

Q: With “MAEERGRPQYRPNCNGLSSYYRERFGSHSPEVYLNLRISGFDDRLEREQIKQYLTQELKKYAPFEIKVVKNPEEDERLAYVNFERNDCARKVRYTLMDRLKSVLGKRVQCDPAGILRDQEGKYIPDRFNRAQHGADSKREGGSGSGNRGRPTKEPSTWRLKQDDDEATRTLFVGNMPSDVKEREIRHVFEEHGKVEEVDIKTPINTDAAYAFVMFQTVDQAIQAKAEEQDRPIRAGGSRMKIGYGKSQVSRRLFVGGLGSWCDKEILQKAFGEFGFVENIDYDHGQPYAYVVYENTHTSQEACRSLRGACISKGNHPIMVDYAKDLTAQPEKQQFMRKRRASKSPVGASAVRTPPGSPKDVVRNFAELEEAYAATWSGKMALKKTDYPVKFYRVYGAERLPVKLLRDEDDVPLRLLITQRLSLSSQNLLFDKLASCSSKELSLGVITGKKELSDLQPLVNYFTNKEAAGVVTVPGGILYIFPFCEFALKLLAEFTPQVNVFNENCPFLLGALAVRAPGTP” as the sequence, how does the “soluble on expression in E. coli” value read?
A: not soluble

Q: Which “soluble on expression in E. coli” value does the source give for “SNAPLKEQKVINTANIKTNSKLDLAEYENGLINIATQQFDTESHVLQLNQYIPEKLIDELVAKVEAPVLTNIIEQDYFGKQNSNELSLSGVMIGLAMSSSVSNEEAMSKGTEVAKQLIEAINKNDKYNKSPITFAIFKQESTSSLKNGTYIASATVQKNDTNLGNWSTIDEKSYSYPSDEFTQAHGEDNTKINNFAKEIKGFSNGDFIPVNAKVSYKKDQMDTLNMNIVIKYNGKTELMALTQLAAQGMLDKLPKDAKVQLQIKSESKIEAVIIKEKNSDKPFVSFL” here?
A: soluble

Q: Which “soluble on expression in E. coli” value does the source give for “MNITPLTSAAGKGSSAQGTDKISIPNSTRMINAASIKWLNKVRSAISDHIRTSIEKGKLFELASLGSNMFGVPALSARPSTLQPVLAFEADPNHDLNLVRVYMQDSAGKLTPWDPTPNAVTTTSNPSEPDAQSDTASSSLPRRPPAGSVLSLLGIALDHAQRHSPRADRSAKGRPGREERNGARFNAKQTKPTEAEAYGDHQTPNPDLHRQKETAQRVAESINSMREQQNGMQRAEGLLRAKEALQAREAARKQLLDVLEAIQAGREDSTDKKISATEKNATGINYQ” here?
A: not soluble

Q: Which “soluble on expression in E. coli” value does the source give for “MPGIIQIDDMNQSQALIGNNDEHLKAIEESFDVVIHARGQEVAVKGTKIENVEKAESVLINLLKVIDLGNNITIKDVEAAIKMAHNNTIQHLLDLYDEEITKDAFGKTIRAKTMGQRIYVNAMKNNDLVFGIGPAGTGKTFLAVVYAAKQLRKGAVKRIVLTRPAVEAGESLGFLPGDLKEKVDPYLRPLYDGLYTVLGREQTERFIERGIIEIAPLAYMRGRTLEDAFVILDEAQNTTHAQMKMFLTRLGFGSKMVVTGDQTQIDLPKGVKSGLKEAVSRLHNVKGISILKLDQSDVVRHPLVSKIIEHYEGEN” here?
A: not soluble

Q: For “MLSEEDVHTNSYAGRTVAVMEQPDLFSDDCDEINLGNEDTPPSKLRLHTTEEPKESSSPAVINSIEDHDQYVGNDNHYAQISPEPALSNFKVTMREFEKRGDGMNAYIVYKLETEVSGVVGYTKQHYETWRRFSDFLGLHGKIVEKYLAKGIVIPQPPEKSISALTKTKTNSDPAMSREVGIQRARQLERYICRLIQHPRMRNDCDVRDFLTIESDLPKAVQTAALSSFGVKKIFKNFQVVFSKMAFHMEEGDRWFEQVQSQVDELDEALRKLYTVTETLVASRRDMATSGEQLGKALSMLAACEESTSLSRALSSLTDVTENVSAVYGKQAEVDNSKFSESIYEYIMLISALKDVFGERVRAWQQWQDAQQTLARKRDQKTKIDLSAGGRNERSDQLKGEIEDTVQKMDQLEQHFIELSKAIREEVARFDADRKQDMKKMLVEYMESMIHTHTELLHLWEKFEPEANNIRV”, which “soluble on expression in E. coli” value is on record?
A: not soluble

Q: Which “soluble on expression in E. coli” value does the source give for “MDNCNAWDKLLSQNESTINSTETATITAIIYSPSSKTLHQFINICFPEGSNSILDTTLINYATIGWTNDLKENYSVDVYTLIRNTDDALDLLKPFLQEHSSKVRWLILLDWTLNDQKLWLNELSYAFNKIKQLNDDNEFSVWCLNSGEILNLQRHTTVWQSVHIDFILQTLRSFCYFNDSSLFYICEDHTEEKREEAQRLKYQELLKHFCEDRDMKDHIEMVKRSEILIPKGCDSIGLIKTVDERFEPTEVKEQHFLARYMDFIPTIDKIREDRKTTSGIDLDKLYPLEVFKVNIQEELGKMFAKYRENSRI” here?
A: soluble

Q: With “MYYERPVFDIVDTWEIREREVLKPVLSVAEEDYCYFVQNTVASAQRSWVDLVANLFNSPDSDIDDALNRFADAPCLHGPTLEPMNLILKGSPMYVYCSFEEMRSCATKRFYEGISNRGVVICTVPPYAEGVTRDDMSVWQNQACVNTCSGKNDLDAYIAFLPTSSLQESSYWHTKNGIYSFLAPSQTDAFCCEILCVGRALFEDRSRKEKLRNCLLKLLNYRLKLLFAAALEHHHHHH” as the sequence, how does the “soluble on expression in E. coli” value read?
A: not soluble
